Where no end group is shown, it is not given here. [ ]: non-standard residue; d: D form.
Experiments:
FPRL1 receptor [1] = target: T1, FPRL1 receptor (Homo sapiens, UniProt P25090); experiment: pERK level by Western blot in FPRL1 over-expressing RBL-2H3 cells after stimulation; type: cell-based
T1 construct: expressed in transfected cells; host or cells: RBL-2H3 (rat basophilic leukemia) cells over-expressing FPRL1, kept under G418 selection
T1 sequence (P25090 1-351): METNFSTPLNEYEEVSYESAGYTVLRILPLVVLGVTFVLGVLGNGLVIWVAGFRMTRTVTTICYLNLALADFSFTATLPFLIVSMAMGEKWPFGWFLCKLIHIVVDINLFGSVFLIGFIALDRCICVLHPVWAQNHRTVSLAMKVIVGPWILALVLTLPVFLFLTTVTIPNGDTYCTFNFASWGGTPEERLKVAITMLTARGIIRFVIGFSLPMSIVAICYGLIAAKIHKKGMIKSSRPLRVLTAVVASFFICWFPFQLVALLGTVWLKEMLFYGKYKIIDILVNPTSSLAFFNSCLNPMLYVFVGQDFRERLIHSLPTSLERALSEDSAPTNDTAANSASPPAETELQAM
Method: In order to investigate the effect of HA conjugation on the signal transduction activity of peptide, three kinds of samples were prepared, the raw peptide, conjugate of peptide with HA-AMEA, and conjugate of peptide with HA-AEMA after hyaluronidase treatment. In the conjugate samples, the number of peptide molecules per single HA derivative chain was 5, 8, and 23, respectively. Each sample of conjugate of peptide with HA-AEMA (0.4 mL, 1 mg/mL) was divided into two aliquots. One aliquot was mixed with 0.2 mL of hyaluronidase solution (400 units/mL) and the other was mixed with 0.2 mL of water. Then, the solutions were incubated at 37° C. overnight for the complete enzymatic degradation of HA. Three replicates were carried out for the following bioactivity tests measuring the intracellular level of pERK and calcium ion. […]
The prepared cells were aliquoted into 1×10^6 cells and stimulated with a control (no treatment), peptide (CWRYMVm, SEQ ID NO: 5), HA-AEMA, the mixture of peptide and HA-AEMA, and three kind of conjugate samples with and without hyaluronidase treatment. […] Protein concentrations in the lysates were determined by Bradford protein assay. […]
The data are expressed as means±S.D. from several separate experiments. […]

[2] = Dissolution of peptide in serum; type: physicochemical; conditions: fetal bovine serum
Method: In order to investigate the effect of HA conjugation on the serum stability of peptide, raw peptide and three kinds of conjugate samples were dissolved in 0.5 mL of water and mixed with 0.5 mL of fetal bovine serum (FBS), respectively. In conjugates of peptide with HA derivative, the number of peptide molecules per single HA chain was 5, 19, and 33, respectively. […] Then, the solutions were incubated at 37° C. for 96 hours. The remaining amount of peptide was measured by GPC analysis after incubation for 12, 24, 48, 72, and 96 hours. Three replicates were carried out.

FPRL1 receptor [3] = target: T1, FPRL1 receptor; experiment: Co-treatment with antagonistic peptide, pERK Western blot in RBL-2H3/FPRL1 cells; type: cell-based; conditions: RBL-2H3/FPRL1 cells stimulated 5 min with CWRYMVm or HA-CWRYMVm conjugates (5, 8, 23)
Method: In order to investigate the effect of co-treatment with antagonistic peptide (C—WRWWWW (SEQ ID NO: 6), WRW4 (SEQ ID NO: 2) on the binding characteristics of the conjugates of peptide with HA-AEMA to FPRL1 receptor, the RBL-2H3/FPRL1 cells were stimulated with a control (no treatment), peptide (CWRYMVm, SEQ ID NO: 5), and three kinds of conjugate samples for 5 minutes in the presence and absence of C-WRWWWW (SEQ ID NO: 6), ([…], competitor for FPRL1 binding). The other procedures including electrophoresis and immunoblot analysis for Western blot was repeated in the same way as described above.

Row | Substance | pERK level normalized to peptide alone (100%) (FPRL1 receptor [1]; RBL-2H3/FPRL1 cells, 5 min stimulation, same peptide amount, without hyaluronidase treatment) [%] | stimulation time of highest elevation of intracellular pERK level (FPRL1 receptor [1]; stimulation up to 30 min, Western blot) [min] | dissolution in serum [2] | intracellular level of pERK on co-treatment with antagonistic peptide (FPRL1 receptor [3])
1 | Cys-Trp-Arg-Tyr-Met-Val-DMet (CWRYMV[dM]; also: conjugated with hyaluronic acid derivative) [CWRYMVm, Agonistic peptide for FPRL1 receptor; WRYMVm modified with cysteine] | 100 | 5 | not dissolved in serum completely | –
2 | Trp-Arg-Trp-Trp-Trp-Trp (WRWWWW; also: conjugated with hyaluronic acid derivative) [FPRL1 antagonist peptide] | – | – | – | did not increase at all
